Test results as given in the supplement of paper PMC6757056.
± gives the standard deviation of the averaged measurements.

B1: library; a variant is named by its letters at N, in order (parent)
chain: GCUGUCACCGGAAUACCAGCAUCGUCUUGAUGCCCUUGGAAGUCCGGUCUGAUGAGUCCNNNNNGGACGAAACAGC

How the values were obtained:
theophylline [1] = variants of: B1; assay: FACS-Seq fitted mean relative fluorescence mCherry/BFP without ligand (log10 relative fluorescence); higher = higher reporter protein expression; settings: HEK293T, ligand present: no
Summary of the method: (§1)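 Fluorescence is reported as a normalized fitted mean of sorted-bin read counts. Lentivirally transduced HEK293T libraries (mCherry ribozyme-switch reporter, EF1α-BFP marker) were enriched, treated with or without ligand for 48 h, and sorted into 6 mCherry/BFP bins for MiSeq sequencing of PCR-amplified genomic DNA. The normal fit was on log10(mCherry/BFP), scaled to five spiked-in control ribozymes.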

theophylline [2] = variants of: B1; assay: normalized RNA/DNA level with ligand (relative to sTRSVctl = 100) (log10 (% of sTRSVctl)); higher = less ribozyme self-cleavage, higher mRNA level; settings: ligand concentration (+) RNA-Seq: 5 mM, HEK293T, reporter: mCherry (pCS4076), ligand present: yes
Summary of the method: (§2)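 Ribozyme switch library plasmids with mCherry reporters (eGFP in certain ligand experiments) went into HEK293T cells at 4 µg per 6-well well. Where ligand was used, it was applied 1 h before transfection, and total RNA was extracted with EDTA 72 h later for reverse transcription, amplification, barcoding and sequencing. RNA level is the RNA-to-DNA read ratio normalized to a spiked-in non-cleaving sequence or to the leading sequences, then scaled and log-transformed. Scaling was ×100 with log10, the leading set comprised 25 sequences, and the cutoff was ≥100 DNA reads.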

theophylline [3] = variants of: B1; assay: normalized RNA/DNA level without ligand (relative to sTRSVctl = 100) (log10 (% of sTRSVctl)); higher = less ribozyme self-cleavage, higher mRNA level; settings: HEK293T, reporter: mCherry (pCS4076), ligand present: no
Summary of the method: as §2

theophylline [4] = variants of: B1; assay: FACS-Seq fitted mean relative fluorescence mCherry/BFP with ligand (log10 relative fluorescence); ligand concentration (+) FACS-Seq: 1 mM; higher = higher reporter protein expression; settings: HEK293T, ligand present: yes
Summary of the method: as §1

| Variant | FACS-Seq fitted mean (log10) (theophylline [1]) | normalized RNA/DNA level with ligand (log10) (theophylline [2]) | normalized RNA/DNA level without ligand (log10) (theophylline [3]) | FACS-Seq fitted mean (log10) (theophylline [4]) |
| --- | --- | --- | --- | --- |
| GUACU | 0.8686 ± 0.0017 | 2 ± 0.044 | 1.93 ± 0.08 | 0.97 ± 0.03 |
| AGCGU | -0.0881 ± 0.074 | 2.01 ± 0.027 | 1.82 ± 0.055 | 0.017 ± 0.14 |
| AGAAG | 0.448 ± 0.033 | 1.93 ± 0.025 | 1.61 ± 0.17 | 0.576 ± 0.014 |
| CAGGU | 0.996 ± 0.18 | 2 ± 0.03 | 1.96 ± 0.041 | 0.848 ± 0.048 |
| CAGGA | 0.706 ± 0.028 | 2.01 ± 0.082 | 1.62 ± 0.25 | 0.799 ± 0.045 |
| UCUUG | 0.933 ± 0.1 | 1.94 ± 0.18 | 1.94 ± 0.037 | 1.01 ± 0.025 |
| AGCAA | 0.327 ± 0.12 | 1.94 ± 0.035 | 1.46 ± 0.09 | 0.627 ± 0.067 |
| UAUAC | 0.747 ± 0.029 | 2.06 ± 0.027 | 1.98 ± 0.088 | 0.749 ± 0.0085 |
| UGCAU | 1.25 ± 0.16 | 1.92 ± 0.078 | 1.853 ± 0.018 | 1.3 ± 0.1 |
| UGCAC | 0.938 ± 0.039 | 2.04 ± 0.11 | 2.01 ± 0.022 | 0.991 ± 0.051 |
| AUAAU | 0.702 ± 0.0096 | 2.002 ± 0.012 | 1.79 ± 0.079 | 0.703 ± 0.064 |
| ACCUU | 1.31 ± 0.14 | 2.04 ± 0.038 | 1.95 ± 0.047 | 1.27 ± 0.14 |
| AUGGA | 0.368 ± 0.04 | 1.94 ± 0.043 | 1.68 ± 0.16 | 0.63116 ± 0.00056 |
| ACGCA | 0.6839 ± 0.0046 | 1.99 ± 0.053 | 1.77 ± 0.03 | 0.824 ± 0.049 |
| ACUUU | 0.872 ± 0.15 | 2.012 ± 0.0039 | 1.89 ± 0.022 | 0.813 ± 0.11 |
| AUGAU | 0.439 ± 0.07 | 2.01 ± 0.086 | 1.75 ± 0.12 | 0.262 ± 0.027 |
| GAUCU | 0.704 ± 0.15 | 1.98 ± 0.055 | 1.85 ± 0.03 | 0.81 ± 0.17 |
| AGGCU | 0.7841 ± 0.0051 | 1.96 ± 0.053 | 1.936 ± 0.007 | 0.847 ± 0.013 |
| UUUAU | 0.444 ± 0.021 | 2.0202 ± 0.001 | 1.93 ± 0.06 | 0.417 ± 0.012 |
| GCCCU | 1.072 ± 0.0027 | 1.97 ± 0.025 | 1.98 ± 0.057 | 0.918 ± 0.027 |
| AACUC | 0.94 ± 0.044 | 2.01 ± 0.11 | 1.916 ± 0.016 | 0.924 ± 0.031 |
| ACCGU | 0.885 ± 0.043 | 1.952 ± 0.0024 | 1.83 ± 0.039 | 0.856 ± 0.08 |
| AACAG | 0.587 ± 0.0063 | 1.855 ± 0.014 | 1.78 ± 0.055 | 0.677 ± 0.035 |
| CUAAA | 0.216 ± 0.045 | 2.02 ± 0.035 | 1.5 ± 0.14 | 0.454 ± 0.068 |

| Variant | FACS-Seq fitted mean (log10) (theophylline [1]) | normalized RNA/DNA level with ligand (log10) (theophylline [2]) | normalized RNA/DNA level without ligand (log10) (theophylline [3]) | FACS-Seq fitted mean (log10) (theophylline [4]) |
| --- | --- | --- | --- | --- |
| CUAAU | 0.912 ± 0.092 | 2.02 ± 0.015 | 1.7874 ± 0.001 | 0.979 ± 0.014 |
| UAUGC | 0.174 ± 0.099 | 2.02 ± 0.087 | 2 ± 0.11 | 0.278 ± 0.059 |
| UAUGA | 0.56 ± 0.0061 | 1.92 ± 0.051 | 1.57 ± 0.064 | 0.686 ± 0.033 |
| UAUGU | 0.685 ± 0.011 | 2.111 ± 0.021 | 1.97 ± 0.035 | 0.621 ± 0.026 |
| UCCAG | 0.956 ± 0.042 | 2.01 ± 0.07 | 1.92 ± 0.1 | 1.07 ± 0.13 |
| UCCAA | 0.973 ± 0.14 | 2.04 ± 0.078 | 1.84 ± 0.09 | 0.912 ± 0.053 |
| AGAUG | 0.533 ± 0.011 | 1.9309 ± 0.0011 | 1.803 ± 0.017 | 0.4899 ± 0.0023 |
| AGAUU | 0.511 ± 0.068 | 1.99 ± 0.12 | 1.736 ± 0.01 | 0.627 ± 0.07 |
| CCCGC | 1.3 ± 0.15 | 2.02 ± 0.021 | 2.088 ± 0.019 | 1.05 ± 0.028 |
| CCCGA | 0.977 ± 0.19 | 1.956 ± 0.018 | 1.93 ± 0.077 | 0.827 ± 0.058 |
| CGAGU | 0.892 ± 0.093 | 1.992 ± 0.01 | 1.9 ± 0.02 | 0.873 ± 0.12 |
| CGAGA | 0.788 ± 0.0071 | 1.93 ± 0.022 | 1.58 ± 0.18 | 0.841 ± 0.032 |
| CGAGC | 0.548 ± 0.016 | 2.013 ± 0.0077 | 1.94 ± 0.042 | 0.508 ± 0.037 |
| ACAAA | 0.425 ± 0.062 | 2 ± 0.045 | 1.44 ± 0.11 | 0.7048 ± 0.0042 |
| ACAAG | 0.857 ± 0.14 | 1.99 ± 0.033 | 1.81 ± 0.12 | 0.8889 ± 0.0072 |
| GACGU | 0.7517 ± 0.0053 | 1.93 ± 0.027 | 1.64 ± 0.15 | 1.03 ± 0.022 |
| ACCAU | 0.574 ± 0.037 | 1.993 ± 0.011 | 1.86 ± 0.02 | 0.605 ± 0.068 |
| CGUAA | 0.083 ± 0.047 | 2.04 ± 0.029 | 1.303 ± 0.0043 | 0.767 ± 0.036 |
| UUUGU | 0.965 ± 0.067 | 2.07 ± 0.082 | 2.02 ± 0.041 | 0.8623 ± 0.0024 |
| CCCAC | 0.775 ± 0.051 | 1.975 ± 0.011 | 1.95 ± 0.061 | 0.711 ± 0.051 |
| UUAAG | 0.769 ± 0.074 | 2.02 ± 0.033 | 1.855 ± 0.012 | 0.829 ± 0.086 |
| UCAUG | 0.358 ± 0.073 | 1.9 ± 0.12 | 1.89 ± 0.091 | 0.349 ± 0.033 |
| UCAUU | 0.822 ± 0.046 | 2.03 ± 0.045 | 1.815 ± 0.0057 | 0.906 ± 0.071 |
| CAACU | 0.64 ± 0.013 | 1.98 ± 0.048 | 1.73 ± 0.17 | 0.815 ± 0.097 |

| Variant | FACS-Seq fitted mean (log10) (theophylline [1]) | normalized RNA/DNA level with ligand (log10) (theophylline [2]) | normalized RNA/DNA level without ligand (log10) (theophylline [3]) | FACS-Seq fitted mean (log10) (theophylline [4]) |
| --- | --- | --- | --- | --- |
| CAACC | 1.06 ± 0.065 | 1.91 ± 0.059 | 1.994 ± 0.0033 | 1.02 ± 0.03 |
| CCAUU | 0.558 ± 0.021 | 1.983 ± 0.0031 | 1.75 ± 0.049 | 0.688 ± 0.011 |
| AAAAG | 0.487 ± 0.041 | 1.971 ± 0.00093 | 1.66 ± 0.028 | 0.638 ± 0.13 |
| AAAAU | 0.464 ± 0.031 | 2.02 ± 0.028 | 1.68 ± 0.028 | 0.572 ± 0.045 |
| ACUCU | -0.437 ± 0.075 | 2.01 ± 0.052 | 1.93 ± 0.075 | -0.125 ± 0.13 |
| CUUCC | 0.782 ± 0.05 | 2.02 ± 0.059 | 2.032 ± 0.0046 | 0.683 ± 0.091 |
| AAACG | 0.558 ± 0.061 | 2 ± 0.03 | 1.84 ± 0.12 | 0.652 ± 0.062 |
| CUGUC | 0.555 ± 0.065 | 2.021 ± 0.014 | 1.99 ± 0.021 | 0.5114 ± 0.0041 |
| ACAUA | 0.248 ± 0.061 | 1.94 ± 0.1 | 1.72 ± 0.045 | 0.427 ± 0.032 |
| ACAUG | 0.862 ± 0.2 | 1.913 ± 0.0094 | 1.81 ± 0.02 | 1.01 ± 0.017 |
| CCCCC | 0.942 ± 0.16 | 2.0303 ± 0.00068 | 1.97 ± 0.032 | 0.862 ± 0.091 |
| CCUAC | 0.87 ± 0.071 | 2.01 ± 0.038 | 1.99 ± 0.072 | 0.871 ± 0.066 |
| GAUUU | 0.1728 ± 0.00021 | 2.05 ± 0.067 | 1.78 ± 0.12 | 0.28 ± 0.031 |
| CUUUU | 1.04 ± 0.014 | 1.992 ± 0.0085 | 1.91 ± 0.045 | 1.15 ± 0.12 |
| UGAUU | 0.448 ± 0.028 | 1.96 ± 0.071 | 1.7 ± 0.12 | 0.437 ± 0.11 |
| AUCUC | 0.832 ± 0.12 | 2.03 ± 0.032 | 1.97 ± 0.013 | 0.758 ± 0.14 |
| AAGUU | 0.341 ± 0.057 | 1.939 ± 0.0073 | 1.75 ± 0.073 | 0.39 ± 0.035 |
| UGUGC | 0.71 ± 0.038 | 2.04 ± 0.047 | 1.93 ± 0.086 | 0.652 ± 0.0049 |
| CACGC | 0.917 ± 0.026 | 2.04 ± 0.065 | 1.996 ± 0.013 | 1.04 ± 0.043 |
| UUGCU | 0.987 ± 0.11 | 1.94 ± 0.083 | 1.91 ± 0.03 | 0.922 ± 0.042 |
| CACAC | 0.945 ± 0.11 | 2.02 ± 0.044 | 1.88 ± 0.11 | 1.03 ± 0.2 |
| CACAA | 0.062 ± 0.032 | 2.014 ± 0.0084 | 1.56 ± 0.11 | 0.3195 ± 0.0011 |
| AUACU | 0.617 ± 0.06 | 2.02 ± 0.038 | 1.79 ± 0.033 | 0.713 ± 0.032 |
